From patent EP1137786B1 (UNIVERSITY OF MARYLAND BIOTECHNOLOGY INSTITUTE, dated 2007)

Biological target: full-length single chain (FLSC) gp120-CD4 chimeric polypeptide (HIV-1 BaL; human)
Test: flow cytometry on L1.2/X4 cells

B1: CXCR4 (receptor)
chain: MEGISIYTSDNYTEEMGSGDYDSMKEPCFREENANFNKIFLPTIYSIIFLTGIVGNGLVILVMGYQKKLRSMTDKYRLHLSVADLLFVITLPFWAVDAVANWYFGNFLCKAVHVIYTVNLYSSVLILAFISLDRYLAIVHATNSQRPRKLLAEKVVYVGVWIPALLLTIPDFIFANVSEADDRYICDRFYPNDLWVVVFQFQHIMVGLILPGIVILSCYCIIISKLSHSKGHQKRKALKTTVILILAFFACWLPYYIGISIDSFILLEIIKQGCEFENTVHKWISITEALAFFHCCLNPILYAFLGAKFKTSAQHALTSVSRGSSLKILSKGKRGGHSSVSTESESSSFHSS
notes: whole, on cells; also called X4; L1.2/X4 cells
  binding result: no binding
